Experimental data as given in patent publication EP4691498A1, “ANTIBODY-DRUG CONJUGATE, AND PREPARATION METHOD THEREFOR AND USE THEREOF” (Chengdu Scimount Pharmatech Co., Ltd., priority 2023, dated 2024).
Where two headings read alike, the source gives them in different places.

Tests used:
[1] = highest non-severe toxic dose; from literature references 1 and 2; cited from earlier work
[2] = Safety evaluation, repeated intravenous infusion (HNSTD); type: in vivo; conditions: monkey HNSTD expressed as eribulin amount
Procedure: Four groups were set up for this test, namely the vehicle control group and SMP-656 groups with different doses (5, 10, 15 mg/kg), with 10 animals in each group, including 5 females and 5 males. Monkeys in each group were intravenously infused (for 30 min) with SMP-656 at doses of 5, 10 and 15 mg/kg at a volume of 10 mL/kg, once every three weeks, for 3 administrations (total 9 weeks), followed by a 4-week recovery period.
During the test, detailed clinical observations, and body weight and food intake monitoring were performed once a week. Clinical pathology examinations (including: hematology, coagulation, serum biochemistry, and urine analysis) were performed on Day 7, Day 50 and Day 71 respectively. The observation of irritation at the administration site was conducted once a week during the administration period, 2-4 h after administration on the administration day, and once a week during the recovery period. For animals with symptoms, the observation frequency was increased to daily until the symptoms disappeared. All surviving animals underwent accompanying toxicokinetic testing on Day 1 and Day 22. At the end of the administration period and the end of the recovery period, all surviving animals were euthanized as planned, dissected and grossly observed, and tissues and organs were weighed or fixed and preserved for pathological examination.

[3] = highest non-severe toxic dose; from literature references 1 and 2; cited from earlier work; remark: listed apart in the source

| Compound | Monkey HNSTD (mg/kg) [1] | Equivalent to eribulin amount [2] [mg/kg] | Monkey HNSTD (mg/kg) [3] |
| --- | --- | --- | --- |
| MORAb-202: ADC with Eribulin as a small-molecule toxin, set DAR of 4 | 6^1 mg/kg | 0.12 | – |
| C=C1C[C@@H]2CC[C@@]34C[C@H]5O[C@H]6[C@@H](O3)[C@H]3O[C@H](CC[C@@H]3O[C@H]6[C@H]5O4)CC(=O)C[C@@H]3[C@@H](OC)[C@@H](C[C@H](O)CN)O[C@H]3C[C@H]3O[C@@H](CC[C@@H]1O2)C[C@@H](C)C3=C [Eribulin] | – | 0.03 | 0.03^2 mg/kg |
